Laboratory results: the supplement of paper PMC10567573

B1: RTP4 (parent)
chain: AFGWFRCSSCQRSWASAQVQILCH
B2: C10orf62 (parent)
chain: GHSHHSHHGHPSHQSHSLPNRRH

Variants of: B1
Assay: protein stability index of a GFP-peptide fusion (GPS, HEK-293T) (PSI 1-6); higher = more stable
Settings: c terminus: a fixed tail appended
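Further: lentivirally expressed fusions sorted by FACS into six bins by GFP to DsRed ratio, PSI derived from sequencing read proportions per bin multiplied by bin number.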

Row | Variant | protein stability index
1 | Q18I | 2.59
2 | Q18K | 1.42
3 | Q18M | 3.17
4 | Q18N | 1.71
5 | Q18P | 2.52
6 | Q18S | 2.14
7 | Q18T | 1.57
8 | Q18V | 4.68
9 | Q18W | 2.88
10 | V19A | 1.57
11 | V19C | 1.56
12 | V19D | 1.52
13 | V19E | 2.23
14 | V19F | 3.22
15 | V19G | 2.58
16 | V19H | 1.59
17 | V19I | 3.39
18 | V19K | 1.67
19 | V19M | 3.54
20 | V19N | 3
21 | V19P | 1.35
22 | V19Q | 1.91
23 | V19R | 2.36

Row | Variant | protein stability index
24 | V19S | 2.36
25 | V19T | 2.79
26 | V19Y | 3.2
27 | Q20A | 1.57
28 | Q20C | 2.17
29 | Q20D | 1.66
30 | Q20H | 2.97
31 | Q20I | 2.42
32 | Q20K | 2.83
33 | Q20L | 4.4
34 | Q20N | 2.4
35 | Q20P | 3.22
36 | Q20S | 2.84
37 | Q20T | 1.24
38 | Q20V | 2.08
39 | Q20W | 1.69
40 | Q20Y | 3.08
41 | I21A | 1.68
42 | I21C | 3.07
43 | I21F | 2.39
44 | I21G | 1.49
45 | I21H | 2.27
46 | I21K | 1.03

Row | Variant | protein stability index
47 | I21L | 2.34
48 | I21N | 1.68
49 | I21Q | 1.62
50 | I21R | 1.72
51 | I21S | 3.43
52 | I21T | 2.9
53 | I21W | 1.37
54 | I21Y | 3.2
55 | L22A | 2.09
56 | L22C | 1.4
57 | L22D | 1.79
58 | L22G | 1.41
59 | L22H | 2.13
60 | L22M | 1.32
61 | L22N | 2.66
62 | L22P | 3.05
63 | L22R | 1.61
64 | L22T | 1.65
65 | L22W | 2.17
66 | C23D | 1.92
67 | C23E | 2.8
68 | C23F | 2.59
69 | C23H | 1.84

Row | Variant | protein stability index
70 | C23I | 4.29
71 | C23K | 2.35
72 | C23L | 2.78
73 | C23M | 3.79
74 | C23N | 2.21
75 | C23P | 2.83
76 | C23Q | 3.85
77 | C23R | 1.49
78 | C23S | 1.8
79 | C23T | 1.93
80 | C23Y | 2.81
81 | H24A | 1.84
82 | H24D | 1.97
83 | H24F | 3.12
84 | H24I | 3.64
85 | H24K | 1.83
86 | H24N | 3.06
87 | H24P | 3.58
88 | H24R | 3.52
89 | H24V | 4.55
90 | H24W | 1.61
91 | H24Y | 3.39

Variants of: B2
Assay: as above
Settings: c terminus: native

Row | Variant | protein stability index
92 | G1A | 4.7
93 | G1D | 2.81
94 | G1E | 2.45
95 | G1F | 3.19
96 | G1H | 2.43
97 | G1I | 3.33
98 | G1K | 2.79
99 | G1L | 3.98
100 | G1M | 2.19
101 | G1N | 2.38
102 | G1P | 3.63
103 | G1Q | 4.66
104 | G1R | 3.44
105 | G1S | 2.81
106 | G1T | 2.66
107 | G1W | 3.55
108 | G1Y | 2.42
109 | H2A | 3.05
110 | H2D | 2.97
111 | H2E | 2.36
112 | H2F | 3.23
113 | H2G | 2.22
114 | H2K | 3.36
115 | H2L | 3.18
116 | H2M | 3.72

Row | Variant | protein stability index
117 | H2N | 3.26
118 | H2P | 1.89
119 | H2Q | 3.15
120 | H2R | 3.13
121 | H2S | 3.15
122 | H2T | 3.56
123 | H2V | 1.5
124 | H2W | 3
125 | H2Y | 2.31
126 | S3A | 3.05
127 | S3C | 3.13
128 | S3D | 2.29
129 | S3F | 2.38
130 | S3H | 2.27
131 | S3I | 2.2
132 | S3K | 2.75
133 | S3L | 1.31
134 | S3N | 2.89
135 | S3Q | 2.63
136 | S3R | 3.09
137 | S3V | 3.19
138 | S3W | 2.33
139 | S3Y | 3.14
140 | H4A | 2.45
141 | H4C | 2.69

Row | Variant | protein stability index
142 | H4D | 2.31
143 | H4E | 2.76
144 | H4F | 3.61
145 | H4G | 3.39
146 | H4I | 2.58
147 | H4K | 2.15
148 | H4N | 4.06
149 | H4P | 3.51
150 | H4Q | 2.37
151 | H4V | 2.93
152 | H4Y | 2.93
153 | H5A | 2.92
154 | H5C | 3.11
155 | H5D | 3.54
156 | H5E | 2.3
157 | H5F | 3.95
158 | H5G | 2.33
159 | H5I | 2.64
160 | H5K | 1.69
161 | H5L | 2.65
162 | H5M | 2.23
163 | H5N | 2.35
164 | H5P | 4.04
165 | H5S | 2.38
166 | H5T | 3.1

Row | Variant | protein stability index
167 | H5W | 2.3
168 | H5Y | 3.13
169 | S6A | 4.79
170 | S6D | 2.08
171 | S6E | 1.84
172 | S6F | 2.95
173 | S6H | 4.03
174 | S6I | 2.27
175 | S6K | 1.55
176 | S6L | 3.37
177 | S6M | 3.95
178 | S6N | 3.28
179 | S6P | 2.12
180 | S6Q | 3.1
181 | S6R | 2.98
182 | S6T | 3.3
183 | S6V | 2.71
184 | S6W | 4
185 | S6Y | 3.47
186 | H7A | 2.72
187 | H7C | 2.65
188 | H7D | 3.05
189 | H7E | 2.1
190 | H7G | 1.83
191 | H7K | 2.14

Row | Variant | protein stability index
192 | H7L | 3.37
193 | H7M | 1.87
194 | H7N | 2.44
195 | H7P | 4.21
196 | H7R | 3.22
197 | H7S | 3.47
198 | H7T | 2.66
199 | H7W | 2.41
200 | H8A | 5.15
201 | H8C | 4
202 | H8D | 1.96
203 | H8E | 2.42
204 | H8F | 3.5
205 | H8G | 2.46
206 | H8I | 3.3
207 | H8K | 3.13
208 | H8M | 2.06
209 | H8N | 4.02
210 | H8P | 1.38
211 | H8Q | 2.84
212 | H8R | 2.72
213 | H8S | 2.96
214 | H8T | 3.37
215 | H8Y | 3.29
216 | G9A | 2.81

Row | Variant | protein stability index
217 | G9C | 4.56
218 | G9D | 2.41
219 | G9E | 3.5
220 | G9F | 3.35
221 | G9H | 3.58
222 | G9I | 4.14
223 | G9K | 3.76
224 | G9L | 2.26
225 | G9M | 3.76
226 | G9N | 2.82
227 | G9P | 1.91
228 | G9Q | 2.3
229 | G9S | 2.37
230 | G9T | 1.87
231 | G9V | 3.15
232 | G9W | 3.1
233 | H10A | 3.41
234 | H10C | 3.79
235 | H10D | 1.74
236 | H10E | 1.48
237 | H10G | 2.34
238 | H10I | 2.96
239 | H10K | 2.86
240 | H10M | 2.98
241 | H10P | 2.43

Row | Variant | protein stability index
242 | H10Q | 3.81
243 | H10R | 3.48
244 | H10S | 2.08
245 | H10T | 2.53
246 | H10W | 3.14
247 | H10Y | 3.67
248 | P11A | 3.2
249 | P11C | 4.84
250 | P11D | 2.88
251 | P11E | 2.1
252 | P11F | 2.29
253 | P11G | 3.85
254 | P11I | 4.55
255 | P11K | 4.06
256 | P11L | 3.12
257 | P11M | 1.92
258 | P11N | 2.98
259 | P11Q | 3.94
260 | P11R | 3.75
261 | P11S | 2.71
262 | P11T | 2.56
263 | P11V | 2.5
264 | P11W | 2.03
265 | P11Y | 2.47
266 | S12A | 2.22

Row | Variant | protein stability index
267 | S12D | 2.98
268 | S12E | 3
269 | S12G | 2.75
270 | S12I | 4.18
271 | S12L | 2.34
272 | S12M | 2.27
273 | S12N | 3.1
274 | S12P | 3.31
275 | S12Q | 1.6
276 | S12R | 4.62
277 | S12T | 2.57
278 | S12W | 3.49
279 | S12Y | 2.21
280 | H13A | 3.6
281 | H13C | 3.33
282 | H13D | 2.86
283 | H13E | 2.68
284 | H13F | 3.57
285 | H13K | 2.51
286 | H13L | 3.34
287 | H13M | 5.42
288 | H13P | 2.47
289 | H13Q | 2.12
290 | H13R | 2.55
291 | H13S | 2.65

Row | Variant | protein stability index
292 | H13T | 3.08
293 | H13W | 2.6
294 | H13Y | 3.26
295 | Q14A | 3.39
296 | Q14D | 3.4
297 | Q14E | 2
298 | Q14F | 2.56
299 | Q14G | 2.82
300 | Q14H | 3.42
301 | Q14I | 2.95
302 | Q14K | 2.75
303 | Q14M | 4.32
304 | Q14N | 2.92
305 | Q14P | 2.67
306 | Q14R | 3.61
307 | Q14S | 2.26
308 | Q14T | 3.78
309 | Q14V | 2.08
310 | Q14W | 3.44
311 | Q14Y | 1.85
312 | S15A | 3.68
313 | S15D | 2.07
314 | S15E | 3.39
315 | S15F | 2.19
316 | S15G | 3.98

Row | Variant | protein stability index
317 | S15H | 2.48
318 | S15K | 3.18
319 | S15M | 2.74
320 | S15N | 3.44
321 | S15P | 3.1
322 | S15Q | 2.95
323 | S15R | 3.2
324 | S15T | 2.91
325 | S15V | 3.59
326 | S15W | 2.92
327 | S15Y | 2.6
328 | H16A | 2.55
329 | H16C | 2.19
330 | H16D | 3.54
331 | H16E | 1.78
332 | H16F | 3.84
333 | H16G | 3.63
334 | H16I | 3.15
